Laboratory results taken from patent US5567433A, “Liposome preparation and material encapsulation method” (Amgen Inc., priority 1995, dated 1996).

B1: G-CSF: recombinant human granulocyte colony stimulating factor (protein, UniProt P09919 31-207, looked up)
Granulocyte …: TPLGPASSLPQSFLLKCLEQVRKIQGDGAALQEKLVSECATYKLCHPEELVLLGHSLGIPWAPLSSCPSQALQLAGCLSQLHSGLFLYQGLLQALEGISPELGPTLDTLQLDVADFATTIWQQMEELGMAPALQPTQGAMPAFASAFQRRAGGVLVASHLQSFLEVSYRVLRHLAQP

Assays:
[1] = In vivo release after subcutaneous injection into rats; design: species or system Sprague-Dawley rats; settings: either liposome composition
Experimental: Liposomes composed of either DPPC or DMPG:DSPC:CHOL (1:4:5 molar) were prepared substantially in accordance with Method 4, above, to contain either ^125 I-tyraminyl inulin (at a final specific activity of 0.4×10^6 dpm/ml) or ^125 I-rhG-CSF (at a final specific activity of 1×10^6 dpm/ml). (See: ^125 I-labeled Inulin: A convenient marker for deposition of liposome contents in vivo. Sommerman, E. F., Pritchard, P. H. and Cullis, P. R. Biochem Biophys Res Coramerc Vol. 122(1), 319-324; 1984.) The final lipid composition was 30 mM. The injection site was marked. At various times after injection, the rats were sacrificed and the injection site was excised and counted for remaining ^125 I. Percent release was defined as %Release=100(1-DPMt /DPMo), where DPMt is the dpm remaining at the site at time t, and DPMo is the initial dpm injected (t=0).

[2] = Encapsulation of various protein therapeutics and oligonucleotides using Method 4; format: physicochemical; settings: up to; present invention
Experimental: Lipid films, prepared as described in Method 1, were hydrated in water and sonicated. The sonicated dispersions were then subjected to 3-5 cycles of freezing (dry ice/acetone) and thawing (37° C). The dispersions were freeze dried and ground as in Method 2 to form a lipid powder. The powder was subsequently hydrated in G-CSF, and the liposome-encapsulated material was microfluidized as described in Method 1. Unencapsulated G-CSF was separated from encapsulated G-CSF as described in Method 2.
The lipid samples were prepared, sonicated and subjected to freeze/thaw cycles as described in Method 3. Prior to dehydrating the sample, D-mannitol was added (1:1 weight ratio to lipid) as a bulking agent. The samples were freeze-dried and rehydrated, upon use, as described in Method 3. Hydration and microfluidization was carried out as described in Method 1. The samples were then dialyzed as described in Method 2.

G-CSF = test: Reverse phase HPLC of encapsulated G-CSF; format: physicochemical, human; settings: C4 reverse phase HPLC
Text: Biologically active material encapsulated in accordance with Method 4, above, was also subjected to reverse phase high pressure liquid chromatography (HPLC) to determine whether liposome-encapsulation led to structural changes in the encapsulated material. For example, G-CSF alone or encapsulated in DMPG:DSPC:CHOL (1:4:5) liposomes was examined by C4 reverse phase HPLC under the following conditions:
Buffer A: 0.1% trifluoroacetic acid in water
Buffer B: 0.1% trifluoroacetic acid in 90% acetonitrile
Gradient: 0-90% B in 60 minutes
Flow rate: 0.8 milliliter/minute
Detection: 220 nanometers
Thirty micrograms of G-CSF was loaded per run. Liposomes were lysed in 40% methanol for 30 minutes at 37° C. prior to chromatography.

Row | Molecule | leakage of inulin or G-CSF [1] | Encapsulation of input [2] | material destruction or aggregation upon encapsulation (G-CSF) | structural integrity of G-CSF released from liposomes (G-CSF; liposomes lysed in 40% methanol) | Recovery (G-CSF; 30 μg G-CSF injected)
1 | inulin [reference compound] | No significant difference |  |  |  | 
2 | B1 | No significant difference | 80-90% | no material destruction or aggregation | structurally identical to G-CSF which was never encapsulated | 100%
